Assay [1] has as its system B16 melanoma tumors. Description: Mouse model of melanoma treated with chemerin: tumor-infiltrating leukocytes by FACS (Example 5). The format is in vivo, mice (C57BL/6). As for the experimental part:
(§1) A mouse model of melanoma was used to study the effect of an immunomodulator, chemerin (RARRES2) (Pachynski et al. J. Exp. Med. 209(8):1427-1435, 2012). Both control and chemerin-over expressing tumors were transplanted into mice. Intratumoral injections of chemerin were also evaluated. For all animal experiments, C57BL/6 or B6.129S7-Rag1tm1Mom/J (RAG1 KO) mice were purchased from the Jackson Laboratory. Murine B16F0 melanoma, L1.2 B lymphoma, and human 293 HEK lines were obtained from the American Type Culture Collection. Cell lines were grown in complete media consisting of RPMI 1640 supplemented with 10% FBS, sodium pyruvate, penicillin/streptomycin, and beta-mercaptoethanol.
(§2) To evaluate the effect of constitutively secreted chemerin on tumor growth, control or chemerin-expressing B16 melanoma tumor cells (0.5×10^6 or 1×10^6) were inoculated subcutaneously into mice. Tumor growth was measured every 2-4 d by calipers, and size was expressed as the product of perpendicular length by width in square millimeters. Mice were euthanized when tumor size reached about 400 mm^2 or when tumor sites ulcerated or at day 17 to evaluate for tumor-infiltrating leukocytes (TILs) by FACS.
(§3) To evaluate the effect of exogenous chemerin on tumor growth, tumor lines were inoculated as indicated. Recombinant, active, carrier-free murine chemerin (R&D Systems) was reconstituted in sterile PBS. […]

Assay [2] deals with B16 melanoma tumors. Description: Mouse model of melanoma treated with chemerin: tumor growth, with NK cell depletion (Example 5). The format is in vivo, mice (C57BL/6). The settings on record: FIG. 10. As for the experimental part: as §1, §2, §3
In assay [3] the test system is B16 melanoma tumors. In words: Chemerin-secreting B16 melanoma tumors: tumor-infiltrating leukocytes (Example 10). The format is in vivo, C57BL6 mice. The settings on record: tumors engineered to secrete chemerin vs control tumors; FIG. 9. The source says: (§4) In order to determine the effect of chemerin on the TGS components in a mouse model, B16 melanoma tumors were implanted subcutaneously in C57BL6 mice. One cohort of mice received control tumors that received no treatment. The other cohort received tumors that were engineered to secrete the chemoattractant chemerin locally, thereby mimicking intratumoral injections of the chemoattractant.

Assay [4] has as its system B16 melanoma tumors. Description: Chemerin-secreting B16 melanoma tumors: tumor size (Example 10). The format is in vivo, C57BL6 mice. The settings on record: chemerin (RARRES2) secreting tumors vs control tumors; p<0.05; FIG. 11.
Excerpt: as §4
Clinically, the changes in the number of tumor-infiltrating leukocytes also correlated with tumor growth as well.

Assay [5] has as its system CD137 (TNFRSF9). Description: RT-qPCR of tumors for CD137 (Example 10). The format is in vivo, C57BL6 mice. The settings on record: after 17 days; chemerin tumors (n=5) vs control group (n=4); GAPDH reference; FIG. 12. As for the experimental part:
as §4
(§5) After a period of 17 days, tumors were analyzed by RT-qPCR for LMO2 and CD137 (TNFRSF9), the key components of the TGS. […] Accordingly, a calculated TGS from the tumors would result in improved/lowered TGS score for the chemerin-treated group, whereas the control group that was not treated, and thus had fewer infiltrating NK and T cells, would have a worse/higher TGS score. GAPDH was used as the housekeeping/reference gene (not shown).
On the technique in general: Real-time PCR tracks product formation cycle by cycle.

The test system of assay [6] is LMO2. Description: RT-qPCR of tumors for LMO2 (Example 10). The format is in vivo, C57BL6 mice. The settings on record: after 17 days; chemerin tumors vs control; FIG. 12. The procedure: as §4, §5
Assay [7] relates to B16 melanoma tumors. In words: Control, EGFR-expressing and chemerin-secreting B16 tumors: tumor-infiltrating leukocytes by FACS (Example 11). The format is in vivo, mice. The settings on record: chemerin-secreting B16 tumors; Day 11; FIG. 13B. As for the experimental part: (§6) In a separate experiment, three cohorts of mice were inoculated with B16 melanoma tumors. […] Each group comprised three mice. Tumors were allowed to grow until Day 9. […] Forty-eight hours after the single injection (Day 11), the tumors from all three groups were analyzed for infiltrating NK and T cells, as well as CD137 (TNFRSF9) expression.
On the technique in general: A flow cytometer gives signals particle by particle.

The test system of assay [8] is CD137 (TNFRSF9). Description: CD137 expression on tumor-infiltrating leukocytes by FACS (Example 11). The format is in vivo, mice. The settings on record: chemerin-secreting B16 tumors; vs control tumors treated with cetuximab; FIG. 14. The procedure: as §6
Assay [9] has as its system B16 melanoma tumors. In words: Control, EGFR-expressing and chemerin-secreting B16 tumors: tumor size (Example 11). The format is in vivo, mice. The settings on record: chemerin-secreting B16 tumors; Day 11; vs control tumors treated with cetuximab; FIG. 16. The procedure: as §6
The same tumors from the three groups were analyzed for tumor size (mm^2), a surrogate for clinical outcomes and survival, at pretreatment ([…]) and post-treatment (Day 11).

The test system of assay [10] is CD137. Description: RT-qPCR of tumor biopsies for CD137 (Example 11). The format is in vivo, mice. The procedure: as §6
Tumor biopsies from the three treatment groups were also analyzed by RT-qPCR to measure LMO2 and CD137 expression.
The TGS takes into account the relative expression levels of both CD137 and LMO2. Therefore, the ratio of relative expression of CD137 to LMO2 was determined.

B1: chemerin: chemoattractant polypeptide that attracts cells including NK cells, T cells, macrophages and dendritic cell subsets; given recombinant or secreted by engineered tumors (protein, UniProt Q99969 21-157, looked up)
Retinoic acid receptor …: ELTEAQRRGLQVALEEFHKHPPVQWAFQETSVESAVDTPFPAGIFVRLEFKLQQTSCRKRDWKKPECKVRPNGRKRKCLACIKLGSEDKVLGRLVHCPIETQVLREAEEHQETQCLRVQRAGEDPHSFYFPGQFAFS
For B1, the “NK and T cells in murine tumors” value in [1] (FIG. 8) was “increase in NK and T cells”. Moreover, the “infiltrating leukocyte subsets in murine tumors (activated NK and T cells)” value in [1] (FIG. 9) is “increased the representation of activated NK and T cells”. The “clinical efficacy on tumor growth after depletion of NK cells” value in assay [2] (NK cells depleted with anti-Asialo GM1) is given as “abrogated the clinical efficacy”. Also, the tumor growth entry in assay [2] (mice) was “inhibit tumor growth”. Moreover, the “tumor-infiltrating leukocytes (NK and T cells)” value in assay [3] is “increase in tumor-infiltrating leukocytes”. For the same molecule, the tumor size entry in [4] and in [9] was “significantly smaller than control tumors” in each case. The “CD137 (TNFRSF9) expression by RT-qPCR” value in assay [5] is “significantly increased”. Moreover, the “LMO2 expression by RT-qPCR” value in [6] is “not significantly changed”. In [7], the “CD8+ T cells and NK cells of CD45+ TIL” value was “small increases in both CD8+ T cells and NK cells”. The “CD137 expression on total tumor-infiltrating leukocytes (FACS)” value in assay [8] is reported as “increase in CD137 expression”. For the same molecule, the “CD137:LMO2 ratio of relative expression” value in assay [10] (chemerin treated tumors vs non-EGFR and cetuximab treated tumors, FIG. 19) is listed as “greater”. In assay [10] (tumors treated with chemerin, 48 hours time point, FIG. 17B), the “relative CD137 expression (RT-qPCR)” value is recorded as “significantly higher”.
